Legend:
[1] = system: T1, Nc1ncnc2c1ncn2[C@@H]1O[C@H](COP(=O)(O)OP(=O)(O)OP(=O)(O)O)[C@@H](O)[C@H]1O; experiment: ATPase, EnzChek phosphate assay, Michaelis-Menten fit; format: biochemical, Homo sapiens; settings: TKP buffer without phosphate pH 7.5, 2 mM Mg2+, 37°C, no co-chaperone
T1 construct: monomeric SEC fraction, alkaline phosphatase treated
Source text: ATPase, EnzChek phosphate assay, Michaelis-Menten fit on human mortalin (mtHsp70, GRP75, HspA9, PBP74)

[2] = molecular target: Human mitochondrial Hsp70 (mortalin), recombinant (human) (UniProt P38646); experiment: SEC; analytical SEC (Superdex 200 GL 10/30, TKP buffer pH 7.5) of mortalin directly after Ni2+ affinity chromatography

human mortalin (mtHsp70, GRP75, HspA9, PBP74) (Homo sapiens), sequence (chain, as listed by the source): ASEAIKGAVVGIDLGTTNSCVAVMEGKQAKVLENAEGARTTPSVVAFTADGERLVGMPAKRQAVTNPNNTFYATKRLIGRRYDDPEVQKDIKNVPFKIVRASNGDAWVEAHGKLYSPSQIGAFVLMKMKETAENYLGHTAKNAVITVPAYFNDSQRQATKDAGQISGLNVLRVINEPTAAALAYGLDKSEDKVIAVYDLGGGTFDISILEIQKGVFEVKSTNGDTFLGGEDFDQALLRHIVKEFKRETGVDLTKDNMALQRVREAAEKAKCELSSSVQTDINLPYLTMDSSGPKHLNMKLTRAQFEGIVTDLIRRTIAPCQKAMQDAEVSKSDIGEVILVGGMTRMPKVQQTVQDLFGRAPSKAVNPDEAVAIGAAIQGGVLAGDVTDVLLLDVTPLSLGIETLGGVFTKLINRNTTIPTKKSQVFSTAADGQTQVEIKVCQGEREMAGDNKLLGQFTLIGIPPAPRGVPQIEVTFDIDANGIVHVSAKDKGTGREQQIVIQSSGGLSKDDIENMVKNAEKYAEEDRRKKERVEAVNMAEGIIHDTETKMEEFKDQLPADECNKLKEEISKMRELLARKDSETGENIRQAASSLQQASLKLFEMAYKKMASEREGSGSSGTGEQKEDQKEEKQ

human mortalin (mtHsp70, GRP75, HspA9, PBP74) (Homo sapiens)
Km [1]: 190 ± 20 µM | kcat [1]: 0.00252 ± 3.33e-05 s⁻¹

Human mitochondrial Hsp70 (mortalin), recombinant (from UniProt P38646 47-679) (natural protein)
stoichiometry N [2]: 2

— paper PMC4304843, “Human Mitochondrial Hsp70 (Mortalin): Shedding Light on ATPase Activity, Interaction with Adenosine Nucleotides, Solution Structure and Domain Organization” (PLoS ONE, 2015)
